Data: paper PMC3760383

How the values were obtained:
Experiment in all cases: EMSA
p53 (82-360);IFI16 HIN-B = p53 (82-360);IFI16 HIN-B (Homo sapiens;Homo sapiens, UniProt P04637;Q16666-2 82-360;515-710, |)
IFI16 HIN-A = IFI16 HIN-A (Homo sapiens, UniProt Q16666-2 192-393)
p53 (82-393);IFI16 HIN-A = p53 (82-393);IFI16 HIN-A (Homo sapiens;Homo sapiens, UniProt P04637;Q16666-2 82-393;192-393, |)

IFI16 HIN-A, sequence (Q16666 192-393): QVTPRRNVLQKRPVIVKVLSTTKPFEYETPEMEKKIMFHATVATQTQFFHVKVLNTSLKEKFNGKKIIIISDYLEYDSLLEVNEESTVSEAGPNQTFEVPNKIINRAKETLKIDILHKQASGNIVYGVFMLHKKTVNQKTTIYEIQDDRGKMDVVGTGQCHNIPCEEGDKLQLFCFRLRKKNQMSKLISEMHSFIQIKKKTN

B1: p53 consensus 20-mer (dsDNA)
DNA 1: GGACATGCCCGGGCATGTCC
DNA 2: GGACATGCCCGGGCATGTCC
B1: binds (p53 (82-360);IFI16 HIN-B); no binding (IFI16 HIN-A); binds (p53 (82-393);IFI16 HIN-A).
